From paper PMC8205236, “Quantitative Profiling of WNT-3A Binding to All Human Frizzled Paralogues in HEK293 Cells by NanoBiT/BRET Assessments” (ACS Pharmacology & Translational Science, 2021) come the findings set out here.

The chains are these.
T1: HiBiT-tagged human FZD4 (human, UniProt Q9ULV1 37-537)
T1 construct: the receptor's own signal peptide is probably replaced; also called HiBiT-FZD4; WT FZD4; source: HEK293A, transiently transfected, on live cells; not shown: HiBiT, N-terminal, kept
T1 sequence (looked up): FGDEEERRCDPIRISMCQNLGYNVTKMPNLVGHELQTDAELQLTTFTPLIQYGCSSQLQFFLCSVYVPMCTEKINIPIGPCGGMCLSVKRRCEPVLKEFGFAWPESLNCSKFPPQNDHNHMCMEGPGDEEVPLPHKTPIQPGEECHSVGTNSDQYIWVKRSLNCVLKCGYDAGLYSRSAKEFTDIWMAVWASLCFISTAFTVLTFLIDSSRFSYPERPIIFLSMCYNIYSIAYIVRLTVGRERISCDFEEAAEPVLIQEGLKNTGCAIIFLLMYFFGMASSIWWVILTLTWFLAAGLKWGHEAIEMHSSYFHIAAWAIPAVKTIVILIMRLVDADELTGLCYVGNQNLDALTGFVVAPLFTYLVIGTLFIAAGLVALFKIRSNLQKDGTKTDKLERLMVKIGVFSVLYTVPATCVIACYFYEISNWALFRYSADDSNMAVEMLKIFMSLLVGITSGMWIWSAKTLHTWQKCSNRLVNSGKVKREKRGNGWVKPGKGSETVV

B1: untagged human WNT-10B (ligand)
chain: not shown
notes: WNT-10B, human, untagged recombinant protein; source: bought: RnD Systems/Biotechne, purified
B2: untagged human WNT-11 (ligand, UniProt O96014 25-354, looked up)
chain: IKWLALSKTPSALALNQTQHCKQLEGLVSAQVQLCRSNLELMHTVVHAAREVMKACRRAFADMRWNCSSIELAPNYLLDLERGTRESAFVYALSAAAISHAIARACTSGDLPGCSCGPVPGEPPGPGNRWGGCADNLSYGLLMGAKFSDAPMKVKKTGSQANKLMRLHNSEVGRQALRASLEMKCKCHGVSGSCSIRTCWKGLQELQDVAADLKTRYLSATKVVHRPMGTRKHLVPKDLDIRPVKDSELVYLQSSPDFCMKNEKVGSHGTQDRQCNKTSNGSDSCDLMCCGRGYNPYTDRVVERCHCKYHWCCYVTCRRCERTVERYVCK
notes: WNT-11, human, untagged recombinant protein; source: bought: RnD Systems/Biotechne, purified
B3: untagged human/mouse WNT-5A (ligand, UniProt P41221 62-380, looked up)
chain: IIGAQPLCSQLAGLSQGQKKLCHLYQDHMQYIGEGAKTGIKECQYQFRHRRWNCSTVDNTSVFGRVMQIGSRETAFTYAVSAAGVVNAMSRACREGELSTCGCSRAARPKDLPRDWLWGGCGDNIDYGYRFAKEFVDARERERIHAKGSYESARILMNLHNNEAGRRTVYNLADVACKCHGVSGSCSLKTCWLQLADFRKVGDALKEKYDSAAAMRLNSRGKLVQVNSRFNSPTTQDLVYIDPSPDYCVRNESTGSLGTQGRLCNKTSEGMDGCELMCCGRGYDQFKTVQTERCHCKFHWCCYVKCKKCTEIVDQFVCK
notes: WNT-5A, printed as human/mouse, untagged recombinant protein; human WNT-5A is P41221; source: bought: RnD Systems/Biotechne, purified
B4: untagged human WNT-5B (ligand, UniProt Q9H1J7 18-359, looked up)
chain: QLLTDANSWWSLALNPVQRPEMFIIGAQPVCSQLPGLSPGQRKLCQLYQEHMAYIGEGAKTGIKECQHQFRQRRWNCSTADNASVFGRVMQIGSRETAFTHAVSAAGVVNAISRACREGELSTCGCSRTARPKDLPRDWLWGGCGDNVEYGYRFAKEFVDAREREKNFAKGSEEQGRVLMNLQNNEAGRRAVYKMADVACKCHGVSGSCSLKTCWLQLAEFRKVGDRLKEKYDSAAAMRVTRKGRLELVNSRFTQPTPEDLVYVDPSPDYCLRNESTGSLGTQGRLCNKTSEGMDGCELMCCGRGYNQFKSVQVERCHCKFHWCCFVRCKKCTEIVDQYICK
notes: WNT-5B, human, untagged recombinant protein; source: bought: RnD Systems/Biotechne, purified
B5: untagged human WNT-3A (ligand, UniProt P56704 19-352, looked up)
chain: SYPIWWSLAVGPQYSSLGSQPILCASIPGLVPKQLRFCRNYVEIMPSVAEGIKIGIQECQHQFRGRRWNCTTVHDSLAIFGPVLDKATRESAFVHAIASAGVAFAVTRSCAEGTAAICGCSSRHQGSPGKGWKWGGCSEDIEFGGMVSREFADARENRPDARSAMNRHNNEAGRQAIASHMHLKCKCHGLSGSCEVKTCWWSQPDFRAIGDFLKDKYDSASEMVVEKHRESRGWVETLRPRYTYFKVPTERDLVYYEASPNFCEPNPETGSFGTRDRTCNVSSHGIDGCDLLCCGRGHNARAERRREKCRCVFHWCCYVSCQECTRVYDVHTCK
notes: WNT-3A, human, untagged recombinant protein; source: bought: RnD Systems/Biotechne, purified
B6: FZD4-CD86 chimeric protein (HiBiT-tagged) (receptor)
chain: FGDEEERRCDPIRISMCQNLGYNVTKMPNLVGHELQTDAELQLTTFTPLIQYGCSSQLQFFLCSVYVPMCTEKINIPIGPCGGMCLSVKRRCEPVLKEFGFAWPESLNCSKFPPQNDHNHMCMEGPGDEEVPLPHKTPIQPGEECHSVGTNSDQYIWVKRSLNCVLKCGYDAGLYS
B7: FZD8-CD86 chimeric protein (HiBiT-tagged) (receptor)
chain: ASAKELACQEITVPLCKGIGYNYTYMPNQFNHDTQDEAGLEVHQFWPLVEIQCSPDLKFFLCSMYTPICLEDYKKPLPPCRSVCERAKAGCAPLMRQYGFAWPDRMRCDRLPEQGNPDTLCMDYNRTDLTTAAPSPPRRLPPPPPGEQPPSGSGHGRPPGARPPHRGGGRGGGGGDAAAPPARGGGGGGKARPPGGGAAPCEPGCQCRAPMVSVSSERHPLYNRVKTGQIANCALPCHNPFFSQDERA
B8: FZD4-FZD8 chimeric protein (receptor)
chain: FGDEEERRCDPIRISMCQNLGYNVTKMPNLVGHELQTDAELQLTTFTPLIQYGCSSQLQFFLCSVYVPMCTEKINIPIGPCGGMCLSVKRRCEPVLKEFGFAWPESLNCSKFPPQNDHNHMCMEGPGDEEVPLPHKTPIQPGEECHSVGTNSDQYIWVKRSLNCVLKCGYDAGLYSFTVFWIGLWSVLCFVSTFATVSTFLIDMERFKYPERPIIFLSACYLFVSVGYLVRLVAGHEKVACSGGAPGAGGAGGAGGAAAGAGAAGAGAGGPGGRGEYEELGAVEQHVRYETTGPALCTVVFLLVYFFGMASSIWWVILSLTWFLAAGMKWGNEAIAGYSQYFHLAAWLVPSVKSIAVLALSSVDGDPVAGICYVGNQSLDNLRGFVLAPLVIYLFIGTMFLLAGFVSLFRIRSVIKQQDGPTKTHKLEKLMIRLGLFTVLYTVPAAVVVACLFYEQHNRPRWEATHNCPCLRDLQPDQARRPDYAVFMLKYFMCLVVGITSGVWVWSGKTLESWRSLCTRCCWASKGAAVGGGAGATAAGGGGGPGGGGGGGPGGGGGPGGGGGSLYSDVSTGLTWRSGTASSVSYPKQMPLSQV
B9: FZD4-FZD6 chimeric protein (receptor)
chain: FGDEEERRCDPIRISMCQNLGYNVTKMPNLVGHELQTDAELQLTTFTPLIQYGCSSQLQFFLCSVYVPMCTEKINIPIGPCGGMCLSVKRRCEPVLKEFGFAWPESLNCSKFPPQNDHNHMCMEGPGDEEVPLPHKTPIQPGEECHSVGTNSDQYIWVKRSLNCVLKCGYDAGLYSIGTVSIFCLCATLFTFLTFLIDVRRFRYPERPIIYYSVCYSIVSLMYFIGFLLGDSTACNKADEKLELGDTVVLGSQNKACTVLFMLLYFFTMAGTVWWVILTITWFLAAGRKWSCEAIEQKAVWFHAVAWGTPGFLTVMLLAMNKVEGDNISGVCFVGLYDLDASRYFVLLPLCLCVFVGLSLLLAGIISLNHVRQVIQHDGRNQEKLKKFMIRIGVFSGLYLVPLVTLLGCYVYEQVNRITWEITWVSDHCRQYHIPCPYQAKAKARPELALFMIKYLMTLIVGISAVFWVGSKKTCTEWAGFFKRNRKRDPISESRRVLQESCEFFLKHNSKVKHKKKHYKPSSHKLKVISKSMGTSTGATANHGTSAVAITSHDYLGQETLTEIQTSPETSMREVKADGASTPRLREQDCGEPASPAASISRLSGEQVDGKGQAGSVSESARSEGRISPKSDITDTGLAQSNNLQVPSSSEPSSLKGSTSLLVHPVSGVRKEQGGGCHSDT
B10: FZD6-FZD4 chimeric protein (receptor)
chain: HSLFTCEPITVPRCMKMAYNMTFFPNLMGHYDQSIAAVEMEHFLPLANLECSPNIETFLCKAFVPTCIEQIHVVPPCRKLCEKVYSDCKKLIDTFGIRWPEELECDRLQYCDETVPVTFDPHTEFLGPQKKTEQVQRDIGFWCPRHLKTSGGQGYKFLGIDQCAPPCPNMYFKSDELEFAKSFMAVWASLCFISTAFTVLTFLIDSSRFSYPERPIIFLSMCYNIYSIAYIVRLTVGRERISCDFEEAAEPVLIQEGLKNTGCAIIFLLMYFFGMASSIWWVILTLTWFLAAGLKWGHEAIEMHSSYFHIAAWAIPAVKTIVILIMRLVDADELTGLCYVGNQNLDALTGFVVAPLFTYLVIGTLFIAAGLVALFKIRSNLQKDGTKTDKLERLMVKIGVFSVLYTVPATCVIACYFYEISNWALFRYSADDSNMAVEMLKIFMSLLVGITSGMWIWSAKTLHTWQKCSNRLVNSGKVKREKRGNGWVKPGKGSETVV

For the first assay, the target named is T1, HiBiT-tagged human FZD4. In words: FRET or BRET; NanoBiT/BRET competition binding on live HEK293A cells with HiBiT-FZD4: 30 min preincubation with purified untagged WNT at 37 °C, then eGFP-WNT-3A to 0.4 nM for 240 min, then LgBiT and furimazine; pKi by Cheng-Prusoff. The settings on record: one partner purified. (Bioluminescence resonance energy transfer reports proximity on the nanometre scale.)
Turning to B1, the “0.4 nM eGFP-WNT-3A binding displaced (%)” value was 34.5%, the pKi stood at 7.87 and the ΔBRET was -0.001.

Consider B2, for which the “0.4 nM eGFP-WNT-3A binding displaced (%)” value was found to be 58.4%, the pKi was 8.9 and the ΔBRET was -0.001.

Turning to B3, the “0.4 nM eGFP-WNT-3A binding displaced (%)” value was determined as 78.4%, the negative-log Ki (pKi) stood at 7.08 and the ΔBRET was -0.004.

For the molecule B4, the “0.4 nM eGFP-WNT-3A binding displaced (%)” value came to 78.3%, the pKi was determined as 6.93 and the ΔBRET was -0.004.

B5: the “0.4 nM eGFP-WNT-3A binding displaced (%)” value is 40.8%, the pKi came out at 7.26 and the ΔBRET is -0.002.

A further assay has as its target T2, eGFP-tagged mouse WNT-3A (mouse, UniProt P27467 19-352).
T2 construct: WNT-3A, mouse, eGFP-tagged, secreted into conditioned medium; Co-expressed with His-Afamin, which may accompany the WNT in the medium; Two batches (16.7 nM and 16.2 nM); also called eGFP-WNT-3A; eGFP-Wnt-3A; source: HEK293F suspension cells, cotransfected with pCS2+-eGFP-WNT-3A and pCMV-His-Afamin; conditioned medium, concentrated 5-fold and medium-exchanged (not purified)
In words: FRET or BRET; NanoBiT/BRET saturation binding on live HEK293A cells (setup 1): eGFP-WNT-3A conditioned medium 16.7 pM to 16.7 nM, 5% FBS, 10 mM HEPES, 240 min at 37 °C, then LgBiT and furimazine for 10 min; one-site specific model (normalised logarithmic fits for pKd). Particulars: partners not purified.
B6 displayed a Kd of 142 nM.

For the molecule B7, the Kd turned out to be 22.9 nM.

B8 yielded a Kd of 2.9 nM.

With B9, the Kd worked out at 3.5 nM.

B10 showed a Kd of 5.8 nM.

What is called pKi is −log10 of the Ki, conventionally taken in molar units. A low value points to a high Ki. Usually Kd stands for the concentration at which binding is half-saturated.
